Assay results taken from the supplement of paper PMC9170038.

Tested on: MS2 coat protein
Assay: apparent KD of MS2 coat protein; designed switch direction (-1 OFF switch, 1 ON switch): 1; higher = weaker reporter binding
Procedure, shortened: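 RNA switches sharing common flanks were transcribed by stalled E. coli RNA polymerase on Illumina chips. A doubling series of SNAP-549-labelled MS2 coat protein, from 0.7 or 1.5 nM to 3 µM, was applied in Tris-HCl pH 7.5 buffer with KCl, MgCl2, BSA, DTT, tRNA and Tween-20. Each step lasted 0.8–1.5 h at the bottom of the series and 10–20 min at the top. Normalised cluster fluorescence was curve-fitted, giving apparent KD as the per-design median over clusters.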

[1] = Eterna round: R95, input ligand: FMN 200 uM
[2] = Eterna round: R95, input ligand: microRNA oligo, concentration not stated
[3] = Eterna round: R95, input ligand: none
[4] = input ligand: microRNA oligo, concentration not stated

Sequence | apparent KD of MS2 coat protein [1] | apparent KD of MS2 coat protein [2] | apparent KD of MS2 coat protein [3] | apparent KD of MS2 coat protein (input ligand: FMN 200 uM) | apparent KD of MS2 coat protein [4] | apparent KD of MS2 coat protein (input ligand: none)
GGUUUAGCCAGGUGCAGUUGCACCUGAAAACAUGAGGAUCACCCAUGUUUGGGACAAGCUUUGCUCCUCGUCUUUCC [Isusreraar] (puzzle: Sensor for hsa-mir-208a) | 267 nM | 38.7 nM | 364 nM | – | – | –
CUGCAACAUGAGGAUCACCCAUGUAACCCAAUUAUAGGAUAUGUGAUAGUGAUCGACAUGACAGAAGGGUGAUUGG [Riraence] (puzzle: Same State 1) | 149 nM | 188 nM | 291 nM | – | – | –
UUGUUUCACGUAGGAUAUCGACCUACAUGAGGAUCACCCAUGUUUUUGAAUAGAUUUUUUUGUUACGAGAAGGACGUUAUGUAU [JR_SSNG2_Sub065] (Eterna round: R96, puzzle: Same State NG 2) | – | – | – | 59.3 nM | 104 nM | 168 nM
UCUUGGUUUUUGCUCGUUUUUUGUGUUGAACAUGAGGAUCACCCAUGUAUUGUACGGUCCAGUUUAAUAAUGGUCCG [JMF 30] (puzzle: Sensor for hsa-mir-208a) | 23.4 nM | 14 nM | 25 nM | – | – | –
ACAUGAGGAUCACCCAUGUAUGCUCAGGAAACUGUGCAUCAUGAGGAUAUGGAUCCUAAUUGGAUCCAGAAGGCAUGUAUUAUU [Fiskers NG3ss - 28] (Eterna round: R96, puzzle: Same State NG 3) | – | – | – | 699 nM | 39.1 nM | 45 nM
AAACCACAUGAGGAUCACCCAUGUCAAGAGAGACUAGGAUAUCUGAAUUAAUUAAAUUAAGGAGAAGGAGUGAAAA [71%, Same state of confusion2, 3] (Eterna round: R96, puzzle: Same State 1) | – | – | – | 57.4 nM | 100 nM | 131 nM
UUAAUAAUGUUAGGAUAUACAUGAGGAAUCCUCGUAGAAGGAACAUGACAUGAGGAUCACCCAUGUAGCGCUCAGAAGAGCGCA [Mat - Same State NG 1 - JL mod - D47] (Eterna round: R96, puzzle: Same State NG 1) | – | – | – | 138 nM | 31.3 nM | 135 nM
UUAAAACAUGAGGAUCACCCAUGUAAUAAUAUGGGAGGAUAUCAGAUUUAAUUUAAUUUAUGAGAAGGCCUAAAUG [Mat - Same State 1 - Mod of Eli - D60] (puzzle: Same State 1) | 65.4 nM | 407 nM | 1150 nM | – | – | –
UGUCCAGCCUGUGCUGGUCUUUUGCAUGUACAUGAGGAUCACCCAUGUCGUGUACAUGCUUUUUGCUCGUCUUUAAA [Photon Torp-04] (puzzle: Sensor for hsa-mir-208a) | 181 nM | 25.4 nM | 317 nM | – | – | –
GGGAGAGACGCAGGAUAUGGUGAGGAUUACCCACUAGAAGGGUGGACAUGAGAAUCGAACAUGAGGAUCACCCAUGUUCUGAGG (Eterna round: R96, puzzle: Same State NG 1) | – | – | – | 64 nM | 44.3 nM | 66 nM
UGUUGUAUUACAGGAUAUCUAGGAUUUUUAUUUAGAGAAGGGUAUUCACAUGAGGAUCACCCAUGUAUAUACGAGGAAGUUGUG [JMF's solution 31] (Eterna round: R96, puzzle: Same State NG 1) | – | – | – | – | 30.6 nM | –
GCUAGGAUUAAAGCCAACAUGAGGAUCACCCAUGUAUGUUGGUAGGAUAUCGUUUGCUUUGCAAACGAGAAGGGCUAACCUAGC [JL SSNG3 1.23] (Eterna round: R96, puzzle: Same State NG 3) | – | – | – | 70.6 nM | 57.8 nM | 62.1 nM
UAGAGAGGAAGCGAGGAUAUCGUGUGAGGUACAUGAGGAUCACCCAUGUUUGAUGUUGAGAGAGGCGAGAAGGCGCAGGAGAAAA [JR_SS2_Sub086] (puzzle: Same State 2) | 30.8 nM | 24.9 nM | 38.7 nM | – | – | –
GGUCCAGCCUGAGCUGGACAAAAGCGUGUACAUGAGGAUCACCCAUGUCAUGUACAAGCUUUUUGCUCGUCUUAAAA [JL mod - D87 - 6] (puzzle: Sensor for hsa-mir-208a) | 80.2 nM | 18.8 nM | 94.9 nM | – | – | –
CCAUAGUACAAUUUAGAUCUACAUGAGGAUCACCCAUGUACUGAGGAUAUCAGCUCGUUUAGAGCUGAGAAGGCAGAAUUAAUU [SSNG3/5-A3] (Eterna round: R96, puzzle: Same State NG 3) | – | – | – | 57.1 nM | 116 nM | 112 nM
GUGGCCCAGGCACAGGAUAUGUUUCUCGUAACAUGAGGAUCACCCAUGUGCCUAUGAGAUUUAAUGCAGAAGGGUGCACGCCACA [Mat - Same State 2 - Mod of UCT - D78] (puzzle: Same State 2) | 18.8 nM | 164 nM | 199 nM | – | – | –

Sequence | apparent KD of MS2 coat protein [1] | apparent KD of MS2 coat protein [2] | apparent KD of MS2 coat protein [3] | apparent KD of MS2 coat protein (input ligand: FMN 200 uM) | apparent KD of MS2 coat protein [4] | apparent KD of MS2 coat protein (input ligand: none)
CGCCGACAUGAGGAUCACCCAUGUCACAACUGGUCAGGAUAUGGUAUGAUUUGGCUAUUGCCAGAAGGGACCUCAG [JR_SS001_Sub712] (Eterna round: R96, puzzle: Same State 1) | – | – | – | 22.4 nM | 28.8 nM | 30.6 nM
CGUCCGGCCUGUGCUGGCCGGUAUCAUGUACAUGAGGAUCACCCAUGUUCAUGUGCAGGCUUUUUGCUCGUCUUGUG [salish99_mir208a_012] (puzzle: Sensor for hsa-mir-208a) | 20.5 nM | 12.8 nM | 19.9 nM | – | – | –
AGAAAAGAAAGAAAGGAUAUACAGAAAAGAACAUGAGGAUCACCCAUGUAAGAAGAGGAGGGAGGGUAGAAGGUUCAAGAAAGAA [JR_SS2_Sub017] (puzzle: Same State 2) | 21 nM | 33 nM | 19.3 nM | – | – | –
AGCUUUUAAUUAGGAUAUGGUCACAUGAGGAUCACCCAUGUAACGAUGAUACGAUGUGGUCAAGACUAGAAGGGAUCGCUAACA [SameState NG2 #70] (Eterna round: R96, puzzle: Same State NG 2) | – | – | – | 150 nM | 82.9 nM | 113 nM
GUAGCAUACCGAGGAUAUUCAUACAUGAGGAUCACCCAUGUUAAUAGGCCACAUUAGUGGCCUUGGGAGAAGGCGGAAUGCUAC [Xeonanis - 20 Mod46] (Eterna round: R96, puzzle: Same State NG 2) | – | – | – | 14.1 nM | 10.7 nM | 16.6 nM
UUGCGGGCUUGAGGAUAUUGAGUACAUAUGUUUAACAUGAGGAUCACCCAUGUGGGUUGCGGUAUCGAGAAGGUAACUUCCUAC [salish99_SSNG2_r04_808] (Eterna round: R96, puzzle: Same State NG 2) | – | – | – | 169 nM | 92.5 nM | 153 nM
UGUUGUAUUACAGGAUAUCUAUUAGUUUUUUUUAGAGAAGGGUAUUCACAUGAGGAUCACCCAUGUAUAUACGAGGAAGUUGUG [JMF's solution 96] (Eterna round: R96, puzzle: Same State NG 1) | – | – | – | – | 36.8 nM | –
GUGGUGUAGAUACAGGAUAUGUUGCUCGUAACAUGAGGAUCACCCAUGUAUCUAUGAGAUUAAAUGCAGAAGGGUGCACACCACG [Maerveen] (Eterna round: R96, puzzle: Same State 2) | – | – | – | 22 nM | 220 nM | 358 nM
GUGGUCAGACAUGAGGAUCACCCAUGUGGAAUAAAUAACGUCAAGGAUAUAUAAUAUAGGAUAUAAUAGAAGGUGAGAUUGGUG (Eterna round: R96, puzzle: Same State NG 3) | – | – | – | 108 nM | 107 nM | 119 nM
AAUUAAUUAAUUAAUAUACAUGAGGAUCACCCAUGUAAGAUCAAGGAUAUCAGCUCGUGUAGAGCUGAGAAGGUGAUCACAUGU [SSNG3/16-A4] (Eterna round: R96, puzzle: Same State NG 3) | – | – | – | 345 nM | 92.5 nM | 166 nM
AAACAUGAGCGAGGAUAUGCGGACGAUUACGCUGUAGAAGGCGCAUGUAAAACAACAUGAGGAUCACCCAUGUCAUGUACAUGU (Eterna round: R96, puzzle: Same State NG 1) | – | – | – | 308 nM | 146 nM | 265 nM
AAACGGCCCAACGGAGGGCCACAUGAGGAUCACCCAUGUACAUAGGAUAUCACACCAACAAGGCGUGAGAAGGGUGAUUAAAAC [Xeatte] (Eterna round: R96, puzzle: Same State NG 3) | – | – | – | 58.1 nM | 1120 nM | 747 nM
GUAGCAUGCACCGAGGAUAUUCAUAUUAAAACAUGAGGAUCACCCAUGUAGGCCAAAAGGCCUUGGGAGAAGGCGGACAUGCUAC [Xeonanis - 21] (puzzle: Same State 2) | 23.5 nM | 178 nM | 422 nM | – | – | –
UUCCCAUCGGGAGGAUAUGGUACCUUAUUGGUUCUAGAAGGUCCAACAUGAGGAUCACCCAUGUGGGAGUGGUCUAAUGACCUC [SS NG10LRO04] (Eterna round: R96, puzzle: Same State NG 1) | – | – | – | 247 nM | 326 nM | 311 nM
CAGCACUGUCGAGAGGAUAUGCGGUGAUGGACAUGAGGAUCACCCAUGUUAGCGACAGCAUCACGGCAGAAGGCUCUACUGUUGC [Soteed Omei mod 34] (puzzle: Same State 2) | 12.6 nM | 12.2 nM | 14.3 nM | – | – | –
